Substitutions are numbered along the chain they refer to.
T1: Human CD137 shuffle 3 (amino acids 115-138 replaced by wild boar CD137) (human, amino acids 115-138 from wild …, UniProt Q07011 24-255)
T1 construct: also called shuffle construct 3
T1 chain: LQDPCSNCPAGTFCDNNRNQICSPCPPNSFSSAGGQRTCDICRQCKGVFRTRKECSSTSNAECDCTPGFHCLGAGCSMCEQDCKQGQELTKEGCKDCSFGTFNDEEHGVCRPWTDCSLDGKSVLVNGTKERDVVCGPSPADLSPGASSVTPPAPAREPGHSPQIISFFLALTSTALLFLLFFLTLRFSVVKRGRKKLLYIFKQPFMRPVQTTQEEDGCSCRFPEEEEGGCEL

T2: Human CD137 shuffle 4 (amino acids 89-114 replaced by wild boar CD137) (human, amino acids 89-114 from wild boar, UniProt Q07011 24-255)
T2 construct: also called shuffle construct 4
T2 chain: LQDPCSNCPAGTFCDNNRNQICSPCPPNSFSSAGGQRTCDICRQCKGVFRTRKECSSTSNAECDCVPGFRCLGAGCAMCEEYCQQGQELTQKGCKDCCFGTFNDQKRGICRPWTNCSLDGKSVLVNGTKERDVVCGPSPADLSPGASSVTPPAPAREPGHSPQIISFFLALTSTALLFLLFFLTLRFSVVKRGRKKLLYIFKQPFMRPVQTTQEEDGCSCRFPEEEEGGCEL

T3: Human CD137 shuffle 5 (amino acids 48-88 replaced by African elephant CD137) (human, amino acids 48-88 from African …, UniProt Q07011 24-255)
T3 construct: also called shuffle construct 5
T3 chain: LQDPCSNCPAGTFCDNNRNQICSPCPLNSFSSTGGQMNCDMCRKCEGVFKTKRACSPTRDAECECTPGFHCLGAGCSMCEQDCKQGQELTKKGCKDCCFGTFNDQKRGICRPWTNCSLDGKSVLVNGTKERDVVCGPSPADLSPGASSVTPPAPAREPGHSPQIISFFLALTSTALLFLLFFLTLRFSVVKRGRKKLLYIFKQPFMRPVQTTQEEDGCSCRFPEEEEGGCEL

T4: Human CD137 shuffle 1 (amino acids 162-186 replaced by wild boar CD137) (human, amino acids 162-186 from wild …, UniProt Q07011 24-255)
T4 construct: also called shuffle construct 1
T4 chain: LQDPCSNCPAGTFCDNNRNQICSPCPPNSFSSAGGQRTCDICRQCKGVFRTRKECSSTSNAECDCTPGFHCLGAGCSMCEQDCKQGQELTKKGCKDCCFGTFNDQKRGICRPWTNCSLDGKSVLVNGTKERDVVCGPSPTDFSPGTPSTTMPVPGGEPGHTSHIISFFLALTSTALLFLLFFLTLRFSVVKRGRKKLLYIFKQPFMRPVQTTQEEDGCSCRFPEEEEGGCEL

T5: Human CD137 shuffle 2 (amino acids 139-161 replaced by wild boar CD137) (human, amino acids 139-161 from wild …, UniProt Q07011 24-255)
T5 construct: also called shuffle construct 2
T5 chain: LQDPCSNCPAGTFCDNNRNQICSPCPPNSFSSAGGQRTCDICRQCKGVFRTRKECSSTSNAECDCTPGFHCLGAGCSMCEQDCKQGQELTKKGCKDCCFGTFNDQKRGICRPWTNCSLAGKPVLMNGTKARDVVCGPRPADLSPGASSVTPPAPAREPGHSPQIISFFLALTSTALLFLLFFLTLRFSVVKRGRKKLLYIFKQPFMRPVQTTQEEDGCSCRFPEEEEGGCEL

B1: CD137 antibody clone 011 (rabbit) (antibody, human IgG1, kappa, V domains shown)
VH: QSLEESGGRLVTPGTPLTLTCTVSGIDLSSYHMCWVRQAPGKGLEYIGYIAYGGNTYYANWAKGRFTISKTSTTVDLRITSPTTEDTATYFCARGYSEDSYWGLWGPGTLVTVSS
VL: AYDMTQTPASVEAAVGGTVTIKCQASQNIENYLAWYQQKPGQPPKLLIYDTSKLTSGVPSRFSGSGSGTDFTLTISGVQSDDAATYYCQQDYGIIFVDNIFGGGTEVVVKR
notes: also called Clone 11; CD137 clone 011
B2: CD137 antibody clone 004 (rabbit) (antibody, human IgG1, kappa, V domains shown)
VH: QSLEESGGRLVTPGTPLTLTCTASGFSLSRYDMSWVRQAPGKGLEYIGVISSSGGTNYANWAKGRFTISKTSTTVDLKITSPTTEDTATYFCAREGDYWDFNLWGPGTLVTVSS
VL: AQVLTQTPSSVSAAVGGTVTINCQASQSISNLLAWYQQKPGQPPKLLIYGASTLASGVPSRFSGSGSGTEFTLTISDLESDDAATYYCAGGFPGLDTVAAFGGGTEAVVTR
notes: also called Clone 4; CD137 clone 004
B3: CD137 antibody clone 008 (rabbit) (antibody, human IgG1, kappa, V domains shown)
VH: B2 VH with R30S, V49Y, G55N, N57Y, N60S, G64S
VL: B2 VL with P43R, K45R, G50R, S63K, D81E, V98G, A100T
notes: also called Clone 8; CD137 clone 008
B4: CD137 antibody clone 006 (rabbit) (antibody, human IgG1, kappa, V domains shown)
VH: QSVEESGGRLVTPGTPLTLTCTVSGFSLSSYAMSWVRQAPGKGLEWIGIISTSGITYYASWAKGRFTISKTSTMVDLKITSPTTEDTATYFCARLNGFDDYVRYFDFWGLGTLVTVSS
VL: AIELTQTPSSVSAAVGGTVTINCQASESIASNLAWYQQKPGQPPKLLIYAASYLASGVPSRFKGSGSGTEYTLTISGVQSADAATYYCQSAFYVSSSDNAFGGGTEVVVKR
notes: also called Clone 6; CD137 clone 006
B5: CD137 antibody clone 002 (rabbit) (antibody, human IgG1, kappa, V domains shown)
VH: QSVEESGGRLVTPGTPLTLTCTVSGFSLTYYAVTWVRQPPGKGLEWIGVIYDNGATAFATWAKGRFTMSKNSTTVALKVTSPTTEDTATYFCARSANNAWSTYSNLWGQGTLVTVSS
VL: DIVMTQTPSSVSAAVGGTVTINCQASEDISSYLSWYQQKLGQPPKLLIYKASTLESGVPSRFKGSGSGTEYTLTISDLESDDAATYYCQSYYSGSISGYGFVFGGGTGVVVKR
notes: also called Clone 2; CD137 clone 002
B6: CD137 antibody clone 009 (rabbit) (antibody, human IgG1, kappa, V domains shown)
VH: QSLEESGGRLVTPGTPLTLTCTVSGFSLNDYWMSWVRQAPGKGLEWIGYIDVGGSLYYASWAKGRFTISRTSTTVDLKMTSLTTEDTATYFCARGGLTYGFDLWGPGTLVTVSS
VL: DIVMTQTPASVSEPVGGTVTINCQASEDISSYLAWYQQKPGQRPKRLIYGASDLASGVPSRFSASGSGTEYALTISDLESADAATYYCHYYATISGLGVAFGGGTEVVVKR
notes: also called Clone 9; CD137 clone 009
B7: CD137 antibody clone 010 (rabbit) (antibody, human IgG1, kappa, V domains shown)
VH: QSVEESGGRLVTPGTPLTLTCTVSGFSLSTYAMIWVRQAPGKGLEWIGVVYDNGYISHATWVKGRFTISKTSTTVGLEITSPTTEDTATYFCARSADGSWSTYFNLWGQGTLVTVSS
VL: DIVMTQTPASVEAAVGGTVTIKCQASESISNYLAWYQQKPGQPPKLLIYKASTLASGVSSRFKGSGSGTEFTLTISDLESADAATYYCQTNYCCSSSDNGFAFGGGTEVVVKR
notes: also called Clone 10; CD137 clone 010

Target: T1, Human CD137 shuffle 3 (amino acids …)
Test: flow cytometry on transfected HEK293T-17 cells
Procedure: (§1) 3×10⁶ HEK293T-17 cells were seeded in T75 culture flasks (Greiner Bio-One, cat. no. 658175) in 20 mL RPMI 1640 GlutaMAX medium containing 10% FCS (Biochrom, cat. no. S 0115). After O/N incubation, cells were transiently […] with expression vectors encoding the shuffle constructs or the wild boar, African elephant or human CD137 downstream of a constitutively active human elongation factor-1 alpha (EF-1 alpha) promotor using TransIT®-LT1 Transfection Reagent, Mirus Bio (VWR International, cat. no. 731-0029), according to the manufacturer's instructions. The next day, cells were harvested using 1.5 mL Accutase (Sigma Aldrich, cat. no. A6964) (incubation at 37° C. for 5 min.) and flow cytometry was performed, essentially as described in Example 4, to measure surface expression of the shuffle constructs and the human, African elephant and wild boar CD137 and to measure binding of the antibody clones to the different shuffle constructs. To measure cell surface expression of the constructs, transduced cells were incubated with 1 μg/mL goat polyclonal anti-human CD137 (R&D Systems, cat. no. AF838) in FACS buffer (D-PBS supplemented with 5 mM EDTA [Sigma Aldrich, cat. no. 03690] and 5% (v/v) fetal bovine serum [FBS, Biochrom, cat. no. S 0115]) (4° C., 20 min.), followed by incubation with APC-labeled anti-goat IgG (H+L) (R&D Systems, cat. no. F0108) (4° C., 20 min.). Binding of the different CD137 antibody clones to cells expressing the shuffle constructs was measured by incubation of the transduced cells with 1 μg/mL of the antibody clones, followed by APC-labeled AffiniPure F(ab′)2 Fragment (1:50 final dilution; Jackson, cat. no. 109-136-127).

Binder | binding result
B1 | no binding (tested: 1 µg/mL)
B2 | no binding (tested: 1 µg/mL)

Target: T2, Human CD137 shuffle 4 (amino acids …)
Test: flow cytometry on transfected HEK293T-17 cells
Procedure: as §1

Binder | binding result
B1 | no binding (tested: 1 µg/mL)
B2 | no binding (tested: 1 µg/mL)
B3 | no binding (tested: 1 µg/mL)

Target: T3, Human CD137 shuffle 5 (amino acids …)
Test: flow cytometry on transfected HEK293T-17 cells
Procedure: as §1

Binder | binding result
B4 | no binding (tested: 1 µg/mL)
B5 | no binding (tested: 1 µg/mL)
B6 | no binding (tested: 1 µg/mL)
B7 | no binding (tested: 1 µg/mL)

Target: T4, Human CD137 shuffle 1 (amino acids …)
Test: flow cytometry on transfected HEK293T-17 cells, 1 µg/mL antibody
Procedure: as §1

Binder | binding result
B1 | binds
B4 | binds
B5 | binds
B6 | binds
B7 | binds
B2 | binds
B3 | binds

Target: T5, Human CD137 shuffle 2 (amino acids …)
Test: as above
Procedure: as §1

Binder | binding result
B1 | binds
B4 | binds
B5 | binds
B6 | binds
B7 | binds
B2 | binds
B3 | binds

Target: T1, Human CD137 shuffle 3 (amino acids …)
Test: as above
Procedure: as §1

Binder | binding result
B4 | binds
B5 | binds
B6 | binds
B7 | binds
B3 | binds

Target: T2, Human CD137 shuffle 4 (amino acids …)
Test: as above
Procedure: as §1

Binder | binding result
B4 | binds
B5 | binds
B6 | binds
B7 | binds

Target: T3, Human CD137 shuffle 5 (amino acids …)
Test: as above
Procedure: as §1

Binder | binding result
B1 | binds
B2 | binds
B3 | binds

target: T6, Human CD137 (TNR9_Human) (human, UniProt Q07011 24-255); test: flow cytometry, HEK293-T17 cells transiently transfected with human CD137, antibody at 1 µg/mL, APC-labeled F(ab')2 secondary
T6 construct: Full-length human CD137 expressed on HEK293T-17, NF-kB/293/GFP-Luc or K562 cells, or native on T cells; also called hCD137 wt; 4-1BB
Procedure: (§2) FIG. 4: Binding of CD137 antibody clones to CD137 shuffle constructs expressed on HEK293-T17 cells. HEK293-T17 cells were transfected with the CD137 shuffle constructs, and with human CD137 (hCD137 wt), African elephant of wild boar CD137, as indicated. Binding of the different CD137 antibody clones to these constructs expressed on HEK293-T17 cells was measured by flow cytometry. Staining with polyclonal anti-CD137 antibody is shown as a control.
Target sequence in this assay (Q07011 24-255): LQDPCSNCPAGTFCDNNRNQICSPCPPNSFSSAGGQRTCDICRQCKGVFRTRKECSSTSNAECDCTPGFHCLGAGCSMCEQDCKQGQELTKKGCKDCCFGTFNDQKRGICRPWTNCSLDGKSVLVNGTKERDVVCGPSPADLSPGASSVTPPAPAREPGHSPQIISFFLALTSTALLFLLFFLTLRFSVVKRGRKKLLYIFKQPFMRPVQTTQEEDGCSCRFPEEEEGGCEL
as §1

Binder | binding result
B4 | binds
B5 | binds
B2 | binds

target: T6, Human CD137 (TNR9_Human); test: flow cytometry, HEK293-T17 cells transiently transfected with human CD137, antibody at 1 µg/mL, APC-labeled F(ab')2 secondary [cont.]
Procedure: as §2, §1

Binder | binding result
B1 | binds
B6 | binds
B7 | binds
B3 | binds

From patent publication US20210317225A1 (Genmab, published 2021)
